Experimental data reported in patent US20190194268A1 (DONALD DANFORTH PLANT SCIENCE CENTER, published 2019).
Several values for one entry are separate records, joined by “and”; a condition that tells them apart may be missing. Identical values can stand only once. Entries after “also recorded” stand apart in the source; their conditions may differ. Like-named read-outs stand apart in the source and are kept apart here.

Assays:
Fusarium culmorum = conditions: low salt in vitro assay conditions; U.S. Pat. No. 6,916,970; cited from earlier work
Verticillium dahliae = conditions: low salt in vitro assay conditions; U.S. Pat. No. 6,916,970; cited from earlier work
F. graminearum PH-1 = type: cell-based, Fusarium graminearum
[1] = protein-lipid overlay (PIP Strips, PIP Array); type: binding; conditions: for binding to PI3P, PI4P and PI5P: Example 2, PIP Strips, 1 μg/ml protein, FIG. 9
Experimental: (§1) To test the binding properties of MtDefS peptide A (MtDefS Peptide A; SEQ ID NO:4) and MtDef5FL1 (SEQ ID NO:7), a protein-lipid overlay experiment was performed using PIP Strips™ (2×6 cm nitrocellulose membranes) that are spotted with 100 pmol of various biologically active lipids (Echelon Biosciences, Salt Lake City, Utah). Briefly, lipid strips were blocked with 10 mL of blocking buffer, PBS-T/3% fat free BSA for 12-16 h at 4° C. with gentle agitation. The blocking buffer was discarded and the lipid strips were incubated with 5 mL of PBS-T/3% fat free BSA containing 1 μg/ml of MtDef5 peptide A or MtDef5FL1 for 60 min at 4° C. After hybridization, protein solution was discarded and the strips were then washed with PBS-T three times with gentle agitation for 20 minutes each at room temperature. The protein-lipid interactions were detected by subsequently incubating lipid strips with rabbit anti-MtDef5 peptide A derived synthetic peptide (1 μg/ml) diluted in 5 mL of blocking buffer with gentle agitation for 60 min at 4° C. The lipid strips were washed with PBS-T two times with gentle agitation, for 15 minutes each wash, at room temperature. HRP-conjugated Goat Anti-Rabbit IgG secondary antibody (Thermo Scientific, Cat no: SA 1-9510) diluted 1:4000 in blocking buffer was added to the lipid strips and incubated for 60 min at 4° C. After two washes with PBS-T, chemiluminescence was detected using SuperSignal® West Femto Maximum Sensitivity substrate kit (Thermo Scientific, Cat no: 34094) following the manufacturer's protocol.
(§2) To test the binding properties of MtDef5 and its γ-core motif variants, a protein-lipid overlay experiment was performed using PIP Strips™ (2×6 cm nitrocellulose membranes) that are spotted with 100 pmol of various biologically active lipids, respectively (Echelon Biosciences, Salt Lake City, Utah). To determine relative degree of the binding of MtDef5, PIP Array (Echelon Biosciences, UT) pre-spotted with concentration gradient of various phosphoinositides was used. Briefly, lipid strips and arrays were blocked with 10 mL of blocking buffer, PBS-T/3% fat free BSA for 12-16 h at 4° C. with gentle agitation. The blocking buffer was discarded and the lipid strips and arrays were incubated with 5 mL of PBS-T/3% fat free BSA, containing 3 μg/ml of MtDef5 or its variants for 60 min at 4° C. […] The protein-lipid interactions were detected by subsequently incubating lipid strips and arrays with rabbit anti-MtDef5 derived synthetic peptide (1 μg/ml) antibody diluted in 5 mL of blocking buffer with gentle agitation for 60 min at 4° C. […] After two washes with PBS-T, chemiluminescence was detected using SuperSignal® West Femto Maximum Sensitivity substrate kit (Thermo Scientific, Cat no: 34094) following the manufacturer's protocol.

[2] = protein-lipid overlay (PIP Strips); type: binding
Experimental: as §1
To test the binding properties of MtDef5 and its γ-core motif variants, a protein-lipid overlay experiment was performed using PIP Strips™ (2×6 cm nitrocellulose membranes) that are spotted with 100 pmol of various biologically active lipids, respectively (Echelon Biosciences, Salt Lake City, Utah). To determine relative degree of the binding of MtDef5, PIP Array (Echelon Biosciences, UT) pre-spotted with concentration gradient of various phosphoinositides was used. Briefly, lipid strips and arrays were blocked with 10 mL of blocking buffer, PBS-T/3% fat free BSA for 12-16 h at 4° C. with gentle agitation. The blocking buffer was discarded and the lipid strips and arrays were incubated with 5 mL of PBS-T/3% fat free BSA, containing 3 μg/ml of MtDef5 or its variants for 60 min at 4° C. After hybridization, protein solution was discarded and the strips and arrays were then washed with PBS-T three times with gentle agitation for 20 minutes each at room temperature. The protein-lipid interactions were detected by subsequently incubating lipid strips and arrays with rabbit anti-MtDef5 derived synthetic peptide (1 μg/ml) antibody diluted in 5 mL of blocking buffer with gentle agitation for 60 min at 4° C. The lipid strips and arrays were washed with PBS-T two times with gentle agitation, for 15 minutes each wash, at room temperature. HRP-conjugated Goat Anti-Rabbit IgG secondary antibody (Thermo Scientific, Cat no: SA 1-9510) diluted 1:4000 in blocking buffer was added to the lipid strips and arrays and incubated for 60 min at 4° C. After two washes with PBS-T, chemiluminescence was detected using SuperSignal® West Femto Maximum Sensitivity substrate kit (Thermo Scientific, Cat no: 34094) following the manufacturer's protocol.

Fusarium virguliforme = type: cell-based
Neurospora crassa = type: cell-based
Alternaria brassicicola = type: cell-based; conditions: Example 6, FIG. 15
[3] = test system: Colletotrichum higginsianum; type: cell-based; conditions: Example 6, FIG. 15
Botrytis cinerea = type: cell-based; conditions: Example 6, FIG. 15
F. graminearum = type: cell-based, Fusarium graminearum
F. virguliforme = type: cell-based, Fusarium virguliforme
N. crassa = type: cell-based, Neurospora crassa
[4] = phospholipid binding / protein-lipid overlay; conditions: Example 6, PIP strip, 3 μg/ml protein, FIG. 18A
Experimental: as §2

[5] = protein cross-linking (BS3) oligomerization assay; conditions: SDS-PAGE, FIG. 19, FIG. 23
Experimental: (§3) To determine the oligomeric status of MtDef5FL1 and its γ-core motif variants, protein cross-linking experiments were performed in the presence or absence of PIPs cross-linked with bis[sulfosuccinimidyl] suberate (BS3) substrate. Briefly, MtDef5 and its γ-core motif variants, prepared in 1× PBS buffer, at 1.5 mg/ml (5 μl) were incubated with 2.73 mM PI(3)P or PI(4)P or PI(5)P (1.5 μl) at room temperature for 30 min. The cross-linking reaction was initiated by addition of freshly dissolved water soluble 12.5 mM BS3 (0.5 μl) and incubated for 30 min at room temperature. After crosslinking, samples were reduced with 100 mM dithiothreitol (DTT) and separated on a 4-20% (Bio-Rad, TGX Stain-Free™ precast gels) SDS-PAGE. The oligomerization pattern was visualized using a Bio-Rad ChemiDoc XRS+ system.

[6] = test system: F. graminearum conidia and germlings; type: cell-based, Fusarium graminearum; conditions: DyLight550-labeled, 3μM, 3 hr, FIG. 17
[7] = biological target: the molecule itself; test: BS3 cross-linking with PIP, SDS-PAGE; self-oligomerization
Experimental: as §3

[8] = Example 6, FIG. 14, read-out: IC50 value against F. graminearum
[9] = activity of the indicated protein against Fusarium graminareum, Table 1, read-out: IC50 (nm)
[10] = Example 2, PIP Strips, 1 μg/ml protein, FIG. 9
[11] = Example 6, PIP strip, 3 μg/ml protein, FIG. 18A

Molecule: MsDef1: Alfalfa (Medicago sativa) Defensin 1, SEQ ID NO:79 (RTCENLADKYRGPCFSGCDTHCTTKENAVSGRCRDDFRCWCTKRC; listed as Medicago sativa)
- IC50, Fusarium culmorum growth (Fusarium culmorum): 1 µg/mL
- IC50, Verticillium dahliae growth (Verticillium dahliae): 4 µg/mL

Molecule: MtDef4: Medicago truncatula defensin peptide, SEQ ID NO:76 (RTCESQSHKFKGPCASDHNCASVCQTERFSGGHCRGFRRRCFCTTHC; listed as Medicago truncatula) [reference compound]
- minimal inhibitory concentration (MIC or IC100) against F. graminearum (F. graminearum PH-1; Example 6, FIG. 14): 6 µM
- IC50 (F. graminearum PH-1; [8]): 750 to 1500 nM

Molecule: MtDef5A: single 50-amino acid MtDef5 defensin peptide A, SEQ ID NO:4 (KLCQKRSTTWSGPCLNTGNCKRQCINVEHATFGACHRQGFGFACFCYKKC; listed as Medicago truncatula)
- IC50 (F. graminearum PH-1; [9]): 500 to 750 nM
- binding to PI3P, PI4P and PI5P [1]: much less affinity than MtDef5FL1
- binding to PI3,4P2 [2, 10]: also binds
- binding to PI3,5P2 [2, 10]: also binds
- binding to PI4,5P2 [2, 10]: also binds
- binding to PS [2, 10]: fails to bind

Molecule: NaD1: Nicotiana alata defensin peptide, SEQ ID NO:81 (RECKTESNTFPGICITKPPCRKACISEKFTDGHCSKILRRCLCTKPC; listed as Nicotiana alata) [reference compound]
- IC50 (F. graminearum PH-1; [9]): 500 nM

Molecule: TPP3: Tomato (Solanum lycopersicum) defensin peptide, SEQ ID NO:83 (QQICKAPSQTFPGLCFMDSSCRKYCIKEKFTGGHCSKLQRKCLCTKPC; listed as Solanum lycopersicum) [reference compound]
- IC50 (F. graminearum PH-1; [9]): 500 nM

B1: MtDef5FL1: Medicago truncatula protein with MtDef5 defensin peptides A and B connected by a 7-amino acid linker; SEQ ID NO:7, expressed in Pichia (protein, listed as Medicago truncatula)
chain: CQKRSTTWSGPCLNTGNCKRQCINVEHATFGACHRQGFGFACFCYKKCAPKKVEPKLCERRSKTWSGPCLISGNCKRQCINVEHATSGACHRQGIGFACFCKKKC
- IC100 value against F. graminearum (F. graminearum PH-1; Example 1, FIG. 5A): 0.18 µM
- IC50 (F. graminearum PH-1; Example 1, FIG. 5A, read-out: IC50 value against F. graminearum): 90 nM
- minimal inhibitory concentration (MIC or IC100) against F. graminearum (F. graminearum PH-1; Example 6, FIG. 14): 0.75 µM
- minimal inhibitory concentration (MIC or IC100) against F. graminearum (F. graminearum PH-1; Example 6, FIG. 14, listed as MtDef5): 0.7 to 0.75 µM
- IC50 (F. graminearum PH-1; [8]): 250 to 300 nM
- IC50 (F. graminearum PH-1; [9]): 90 nM
- potency relative to MtDef4, based on the MIC values (F. graminearum PH-1; against F. graminearum): 3 to 5 fold
- concentration inhibiting conidial germination completely (100% growth inhibition) (F. graminearum PH-1; microscopic observation after 14-16 hr incubation, FIG. 5B): 0.18 µM
- IC100 value against F. virguliforme (Fusarium virguliforme): 0.18 µM
- antifungal activity against F. virguliforme (Fusarium virguliforme): potent antifungal activity
- concentration inhibiting conidial germination completely (100% growth inhibition) (Fusarium virguliforme): 0.18 µM
- IC50 (Fusarium virguliforme; read-out: IC50 value against F. virguliforme): 90 nM
- IC100 value against N. crassa (Neurospora crassa): 0.18 µM
- concentration inhibiting conidial germination completely (100% growth inhibition) (Neurospora crassa): 0.18 µM
- minimal inhibitory concentration (MIC or IC100) against Neurospora crassa (Neurospora crassa): 0.7 to 0.75 µM and 0.75 µM
- IC50 (Neurospora crassa; read-out: IC50 value against N. crassa): 90 nM
- IC50 (Neurospora crassa; read-out: IC50 value against Neurospora crassa): 250 to 300 nM
- antifungal activity against Alternaria brassicicola (Alternaria brassicicola): potent antifungal activity
- antifungal activity against Colletotrichum higginsianum [3]: potent antifungal activity
- antifungal activity against Botrytis cinerea (Bci) (Botrytis cinerea): potent antifungal activity
- SG uptake (plasma membrane permeabilization) (F. graminearum; 0.180 μM (IC100) protein + 0.5 μm SG, 2 hrs, FIG. 6): SG uptake was observed
- SG uptake in hyphal cells (F. graminearum; 0.75 μM MtDef5FL1, 3 hr, FIG. 16): SG uptake was visible
- SG uptake (plasma membrane permeabilization) (F. virguliforme): SG uptake was observed
- SG uptake (plasma membrane permeabilization) (N. crassa): SG uptake was observed
- SG uptake in hyphal cells (N. crassa): SG uptake was visible
- binding to PI3P, PI4P and PI5P [1]: strongly binds; also recorded: significantly increases its binding affinity
- binding to PI3P, PI4P and PI5P (PIPs) ([1]; Example 6, PIP strip, 3 μg/ml protein, FIG. 18A, FIG. 22): strongly binds
- amount of PIP per spot at which binding to all three PIPs was observed ([1]; PIP Array, FIG. 18B): ≤ 12.5 pmoles per spot
- binding to PI3,4P2 [2, 10]: binds to a lesser extent
- binding to PI3,5P2 [2, 10]: binds to a lesser extent
- binding to PI4,5P2 [2, 10]: binds to a lesser extent
- binding to PS [2, 10]: binding to PS, is generated
- binding to PI3,5P2 [2, 11]: binds to a lesser extent
- binding to PI4,5P2 [2, 11]: binds to a lesser extent
- binding to phosphatidylserine (PS) [2, 11]: binds to a lesser extent
- binding to phoshatidic acid (PA) [4]: binds to a lesser extent
- oligomerization in presence of PIPs [5]: formed higher-order oligomers only in the presence of PIPs; also recorded: forms higher order oligomers in presence of PIPs
- internalization and localization in fungal cells [6]: is internalized by fungal cells; also recorded: diffuse localization within the cytoplasm

B2: MtDef5FL1_V1 (other)
chain: KLCQAASTTWSGPCLNTGNCKRQCINVEHATFGACAAQGFGFACFCYKKCAPKKVEPKLCEAASKTWSGPCLISGNCKRQCINVEHATSGACAAQGIGFACFCKKKC
notes: Alanine variant expressed in P. pastoris; also called MtDef5FL1 γ-core motif variant V1
- oligomerization in presence of PIPs [5]: no formation of higher order oligomers
- binding result [7]: no binding (tested: 1.5 mg/ml protein)
